Data on one compound can be found in patent US20180369425A1, “LINKED AND OTHER pH-TRIGGERED COMPOUNDS” (priority 2017, published 2018).

This series in a line: in vivo. Conditions: female, BALB/cAcNHsd, mouse, iv, 2.5 nmol, 4 hours post injection, constant up to 16 hours, rough estimation, read-out: amount of ICG-pHLIP in tumors. As for the experimental part:
The fluorescence signals in organs and tissue were also measured in the tissue/organ homogenates and compared with the signals from the control tissue/organ homogenates (collected from control mice) mixed with known amounts of ICG-pHLIP. About 100 mg of tissue (tumor, liver or kidney) were homogenized with 2.5× (about 250 μL) volumes of DMSO using BioMasher II disposable homogenizers (DiagnoCine LLC). 30 μl of homogenate was placed into 384 well plate and imaged using an Odyssey IR scanner. Tumor, liver or kidney homogenates of control mice, mixed with known concentrations of ICG-pHLIP were used to establish the calibration curve. First, note that the fluorescence signals obtained on the control tumor, liver and kidney mixed with the known amounts of ICG-pHLIP were the same. Second, the course of signal changes in tumor, liver and kidney (data not shown) was in excellent correlation with the course of the kinetics presented on FIGS. 18A-F. It is rather difficult to establish precisely the amount of ICG-pHLIP in the tissue and organ samples; however, rough estimations can be made using the calibration curve. […] At 26 hours, when the blood is cleared and the fluorescence signal in all organs is minimal, the contrast between tumor and surrounding tissue is very significant.

Residues, ends and D or L forms follow the SMILES beside them. *: point of attachment. X1 = CC1(C)C(/C=C/C=C/C=C/C=C2/N(CCCCCC(=O)NCCN3C(=O)CC(*)C3=O)c3ccc4ccccc4c3C2(C)C)=[N+](CCCCS(=O)(=O)[O-])c2ccc3ccccc3c21

For `CC(C)C[C@H](NC(=O)[C@H](Cc1ccc(O)cc1)NC(=O)[C@H](C)NC(=O)[C@H](CCCNC(=N)N)NC(=O)[C@H](Cc1c[nH]c2ccccc12)NC(=O)[C@@H]1CCCN1C(=O)[C@H](CC(N)=O)NC(=O)[C@H](CCC(N)=O)NC(=O)[C@H](CC(=O)O)NC(=O)[C@H](CC(=O)O)NC(=O)[C@H](CSC1CC(=O)N(CCNC(=O)CCCCCN2/C(=C/C=C/C=C/C=C/C3=[N+](CCCCS(=O)(=O)[O-])c4ccc5ccccc5c4C3(C)C)C(C)(C)c3c2ccc2ccccc32)C1=O)NC(=O)[C@H](C)N)C(=O)N[C@@H](CC(=O)O)C(=O)N[C@@H](CC(C)C)C(=O)N[C@@H](CC(C)C)C(=O)N[C@@H](Cc1ccccc1)C(=O)N1CCC[C@H]1C(=O)N[C@H](C(=O)N[C@@H](CC(=O)O)C(=O)N[C@H](C(=O)N[C@@H](CC(C)C)C(=O)N[C@@H](CC(C)C)C(=O)N[C@@H](CC(C)C)C(=O)N[C@@H](CC(=O)O)C(=O)N[C@@H](CC(C)C)C(=O)N[C@@H](CC(C)C)C(=O)N[C@@H](Cc1c[nH]c2ccccc12)C(=O)N[C@@H](C)C(=O)O)[C@@H](C)O)[C@@H](C)O` (stereo partly shown) [ICG-pHLIP] (H-AC(X1)DDQNPWRAYLDLLFPTDTLLLDLLWA-OH), the tissue uptake is 10 to 15 %ID/g.
